The values that follow come from patent US20230212319A1, “NOVEL ANTIGEN BINDING DOMAINS AND SYNTHETIC ANTIGEN RECEPTORS INCORPORATING THE SAME” (University of Southern California, priority 2020, published 2023).

Holding throughout (assay type): cell-based
One experiment concerns RAJI cells. The experiment in a line: JNG assay, co-culture with RAJI cells. The following applies: JNG cells expressing construct, co-culture with Raji. The procedure, abridged:
(§1)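 Jurkat-NFAT-GFP (JNG) cells stably expressing SAR constructs via lentiviral transduction and puromycin/blasticidin selection were cocultured with target cells at E:T ~1:2 for ~4–18 h. NFAT-driven GFP was measured by FACS versus parental JNG cells; scores +/- to 5+ denote ~5–50% GFP-positive cells.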

Another experiment deals with RAJI-CD19-KO cells. The experiment in a line: JNG assay, co-culture with RAJI-CD19-KO cells. The following applies: co-culture with Raji-CD19-KO. The procedure, abridged: as §1
A further experiment deals with L363 cells. The experiment in a line: JNG assay, co-culture with L363 cells. Conditions: co-culture with L363. The essentials: as §1
A further experiment concerns RS;411. The experiment in a line: JNG assay, co-culture with RS;411 cells. Conditions: co-culture with RS411. The procedure, abridged:
as §1

Another experiment relates to U266 cells. In words: JNG NFAT-GFP induction on co-culture with U266.
The next experiment deals with Nalm6 cells. In words: JNG assay, co-culture with Nalm6 cells. Conditions: co-culture with Nalm6. The procedure, abridged:
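Jurkat NFAT-GFP reporter cells stably expressing lentivirally delivered SARs (puromycin or blasticidin selection) were cocultured with target cells at E:T ~1:2 for ~4–18 h. GFP was read by FACS, and % GFP+ cells were scored against parental reporter cells (+/-, +, 2+…5+ ≈ 5%, 10%, 20%…50%).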

B1: 22249 (protein)
chain: MALPVTALLLPLALLLHAARPDIQMTQSPSSLSASVGDRVTITCKASDHINNWLAWYQQKPGQAPKLLIYGATTLETGVPSRFSGSGSGTDYTLTISSLQPEDFATYYCQQSWNTPWTFGQGTKLEIKRLEDLKNVFPPEVAVFEPSEAEISHTQKATLVCLATGFYPDHVELSWWVNGKEVHSGVCTDPQPLKEQPALNDSRYCLSSRLRVSATFWQNPRNHFRCQVQFYGLSENDEWTQDRAKPVTQIVSAEAWGRADCGFTSESYQQGVLSATILYEILLGKATLYAVLVSALVLMAMVKRKDSRGRAKRSGSGATNFSLLKQAGDVEENPGPTSATMDWIWRILFLVGAATGAHSGPEVQLVESGGGLVQAGGSLRLSCAASGRTFTMGWFRQAPGKEREFVAAISLSPTLAYYADSVKGRFTISRDNAKNTVVLQMNSLKPEDTALYYCAADRKSVMSIRPDYWGQGTQVTVSSGSALRRLLGLFGFEQVQLQQPGAELVKPGASVKMSCKASGYAFSSYWINWMKQKPGQGLEWIGQIYPGDGDTNYNGKFKGRATLTADTSSSTAYMQLSSLTSEDSAVYFCARSITTVVGCAMDYWGQGTSVTVSSTRIQNPDPAVYQLRDSKSSDKSVCLFTDFDSQTNVSQSKDSDVYITDKCVLDMRSMDFKSNSAVAWSNKSDFACANAFNNSIIPEDTFFPSPESSCDVKLVEKSFETDTNLNFQNLSVIGFRILLLKVAGFNLLMTLRLWSSRAKRSGSGVKQTLNFDLLKLAGDVESNPGPSRGHMTEYKPTVRLATRDDVPRAVRTLAAAFADYPATRHTVDPDRHIERVTELQELFLTRVGLDIGKVWVADDGAAVAVWTTPESVEAGAVFAEIGPRMAELSGSRLAAQQQMEGLLAPHRPKEPAWFLATVGVSPDHQGKGLGSAVVLPGVEAAERAGVPAFLETSAPRNLPFYERLGFTVTADVEVPEGPRTWCMTRKPGA
Regarding B1, the “NFAT-GFP ASSAY: Raji” value in the experiment on RAJI cells was “+ (refer to approximately 5%, 10%, 20%, 30%, 40% and 50% GFP positive cells)”. Moreover, the “NFAT-GFP ASSAY: Raji-CD19-KO” value in the experiment on RAJI-CD19-KO cells was 2+ (refer to approximately 5%, 10%, 20%, 30%, 40% and 50% GFP positive cells). Further, the “NFAT-GFP ASSAY: L363” value with L363 cells was 2+ (refer to approximately 5%, 10%, 20%, 30%, 40% and 50% GFP positive cells). Also, the “NFAT-GFP ASSAY: RS411” value in the experiment on RS;411 was “+ (refer to approximately 5%, 10%, 20%, 30%, 40% and 50% GFP positive cells)”. The “NFAT-GFP ASSAY: U266” value with U266 cells is 4+ (refer to approximately 5%, 10%, 20%, 30%, 40% and 50% GFP positive cells).

B2: 22221 (protein)
chain: MALPVTALLLPLALLLHAARPACEVQLLESGGGLIQPGGSLRLSCAASGFTFSSHAMTWVRQAPGKGLEWVSAISGSGDYTHYADSVKGRFTISRDNSKNTVYLQMNSLRAEDSAVYYCAKDEDGGSLLGHRGQGTLVTVSSGTGPQGIFGQPGYINEFDIQMTQSPSSLSASVGDRVTITCKASDHINNWLAWYQQKPGQAPKLLIYGATTLETGVPSRFSGSGSGTDYTLTISSLQPEDFATYYCQQSWNTPWTFGQGTKLEIKRLEDLKNVFPPEVAVFEPSKAEIAHTQKATLVCLATGFYPDHVELSWWVNGKEVHSGVCTDPQPLKEQPALNDSRYCLSSRLRVSATFWQNPRNHFRCQVQFYGLSENDEWTQDRAKPVTQIVSAEAWGRADCGITSASYHQGVLSATILYEILLGKATLYAVLVSALVLMAMVKRKDSRGRAKRSGSGATNFSLLKQAGDVEENPGPTSATMDWIWRILFLVGAATGAHSGPEVQLVESGGGLVQAGGSLRLSCAASGRTFSMGWFRQAPGKEREFVAAITYSGGSPYYADSVKGRFTISRDNAKNTVYLQMNSLKPEDTAVYYCAANPTYGSDWNAENWGQGTQVTVSSGSGGGGSGGGGSGGGGSFEQVQLQQPGAELVKPGASVKMSCKASGYAFSSYWINWMKQKPGQGLEWIGQIYPGDGDTNYNGKFKGRATLTADTSSSTAYMQLSSLTSEDSAVYFCARSITTVVGCAMDYWGQGTSVTVSSTRIQNPDPAVYQLRDSKSSDKSVCLFTDFDSQTNVSQSKDSDVYITDKCVLDMRSMDFKSNSAVAWSNKSDFACANAFNNSIIPEDTFFPSPESSCDVKLVEKSFETDTNLNFQNLSVIGFRILLLKVAGFNLLMTLRLWSSRAKRSGSGVKQTLNFDLLKLAGDVESNPGPSRGHMTEYKPTVRLATRDDVPRAVRTLAAAFADYPATRHTVDPDRHIERVTELQELFLTRVGLDIGKVWVADDGAAVAVWTTPESVEAGAVFAEIGPRMAELSGSRLAAQQQMEGLLAPHRPKEPAWFLATVGVSPDHQGKGLGSAVVLPGVEAAERAGVPAFLETSAPRNLPFYERLGFTVTADVEVPEGPRTWCMTRKPGA
Consider B2, for which the “NFAT-GFP ASSAY: L363” value in the experiment on L363 cells was “+ (refer to approximately 5%, 10%, 20%, 30%, 40% and 50% GFP positive cells)”. The “NFAT-GFP ASSAY: Nalm6” value in the experiment with Nalm6 cells was “+ (refer to approximately 5%, 10%, 20%, 30%, 40% and 50% GFP positive cells)”. The “NFAT-GFP ASSAY: RS411” value in the experiment with RS;411 is “+ (refer to approximately 5%, 10%, 20%, 30%, 40% and 50% GFP positive cells)”. In the experiment with U266 cells, the “NFAT-GFP ASSAY: U266” value is 2+ (refer to approximately 5%, 10%, 20%, 30%, 40% and 50% GFP positive cells).

B3: 22145 (protein)
chain: MALPVTALLLPLALLLHAARPACEVQLLESGGGLIQPGGSLRLSCAASGFTFSSHAMTWVRQAPGKGLEWVSAISGSGDYTHYADSVKGRFTISRDNSKNTVYLQMNSLRAEDSAVYYCAKDEDGGSLLGHRGQGTLVTVSSGTGGGGSGGGGSGGGGSEFDIQMTQSPSSLSASVGDRVTITCRASQDISNYLNWYQQKPGKAVKLLIYYTSILHSGVPSRFSGSGSGTDYTLTISSLQPEDFATYFCQQGNTLPWTFGGGTKVEIKLEGQPKANPTVTLFPPSSEELQANKATLVCLISDFYPGAVTVAWKADGSPVKAGVETTKPSKQSNNKYAASSYLSLTPEQWKSHRSYSCQVTHEGSTVEKTVAPTECSPIKTDVITMDPKDNCSKDANDTLLLQLTNTSAYYMYLLLLLKSVVYFAIITCCLLRRTAFCCNGEKSRAKRSGSGATNFSLLKQAGDVEENPGPTSATMDWIWRILFLVGAATGAHSGPQVQLQESGGGLAQAGGSLRLSCAASGRTFSMGWFRQAPGKEREFVAAITYSGGSPYYASSVRGRFTISRDNAKNTVYLQMNSLKPEDTAVYYCAANPTYGSDWNAENWGQGTQVTVSSGSGGGGSGGGGSGGGGSFEVQLVESGGGLVKPGGSLKLSCAASGFAFSIYDMSWVRQAPGKGLEWVAYISSGGGTTYYPDTVKGRFTISRDNAKNTLYLQMSSLRAEDTAMYYCARHSGYGSSYGVLFAYWGQGTLVTVSSTRASTKGPSVFPLAPSSKSTSGGTAALGCLVKDYFPEPVTVSWNSGALTSGVHTFPAVLQSSGLYSLSSVVTVPSSSLGTQTYICNVNHKPSNTKVDKRVEPKSCEVKTDSTDHVKPKETENTKQPSKSCHKPKAIVHTEKVNMMSLTVLGLRMLFAKTVAVNFLLTAKLFFLRAKRSGSGVKQTLNFDLLKLAGDVESNPGPSRGHMTEYKPTVRLATRDDVPRAVRTLAAAFADYPATRHTVDPDRHIERVTELQELFLTRVGLDIGKVWVADDGAAVAVWTTPESVEAGAVFAEIGPRMAELSGSRLAAQQQMEGLLAPHRPKEPAWFLATVGVSPDHQGKGLGSAVVLPGVEAAERAGVPAFLETSAPRNLPFYERLGFTVTADVEVPEGPRTWCMTRKPGA
Take B3: the “NFAT-GFP ASSAY: Raji” value with RAJI cells is “+/- (refer to approximately 5%, 10%, 20%, 30%, 40% and 50% GFP positive cells)”. For the same molecule, in the experiment on Nalm6 cells, the “NFAT-GFP ASSAY: Nalm6” value was “+ (refer to approximately 5%, 10%, 20%, 30%, 40% and 50% GFP positive cells)”. Moreover, the “NFAT-GFP ASSAY: RS411” value in the experiment on RS;411 was “+ (refer to approximately 5%, 10%, 20%, 30%, 40% and 50% GFP positive cells)”. The “NFAT-GFP ASSAY: U266” value with U266 cells is 2+ (refer to approximately 5%, 10%, 20%, 30%, 40% and 50% GFP positive cells).
